According to the supplement of paper PMC11780869:

System: Bacillus subtilis
Experiment: cleaved RNA product abundance (RNA/gDNA barcode ratio) relative to median wild-type variant (ratio to wild type); higher = more accumulation of the downstream cleavage product
Conditions: cleavage site: cggR-gapA (positions -7 to +36 mutated)
Experimental: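 MPRA in B. subtilis. Mutagenized RNase Y cleavage-site regions (9% mutation rate) were inserted into a barcoded reporter mRNA (truncated aprE or tetM). Cells were grown in LB at 37°C to OD600 0.3. The cleaved RNA isoform was gel-purified and its barcodes counted; the RNA:gDNA barcode ratio was normalised to the median wild-type variant, and the median over barcodes is reported per variant. The printed sequence is the variable window only; the reporter flanks are not printed.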

[1] = experiment (reporter, strain, medium): exp 2b: truncated aprE reporter, strain BJT200
[2] = experiment (reporter, strain, medium): exp 4a: truncated aprE reporter, strain BJT201 with 2% xylose (RNase J1 expressed)
[3] = experiment (reporter, strain, medium): exp 6: tetM reporter, strain 168

| Sequence | cleaved RNA product abundance [1] | cleaved RNA product abundance [2] | cleaved RNA product abundance [3] |
| --- | --- | --- | --- |
| ACAGACGAAGGAGCCGCAAAGAAGCTATTAAGAGATGAATAATCCCTCAATATAAATATCTCTCACTTATTTAAA | 0.0974 | 0.123 | – |
| ACAGACGAAGGAGCCGCAAAGAAGCTATTAAGCGATGAATAATCCCTCAATATAAATATCTCTCACTTATTTAAA | – | 0.0691 | – |
| ACAGACGAAGGAGCCGCAAAGAAGCTATTAAGGAATGAATAATCCCTCAATATAAATATCTCTCACTTATTTAAA | 0.108 | 0.101 | – |
| ACAGACGAAGGAGCCGCAAAGAAGCTATTAAGGCATGAATAATCCCTCAATATAAATATCTCTCACTTATTTAAA | 0.0626 | – | – |
| ACAGACGAAGGAGCCGCAAAGAAGCTATTAAGGGAAGAATAATCCCTCAATATAAATATCTCTCACTTATTTAAA | 0.265 | 0.4 | – |
| ACAGACGAAGGAGCCGCAAAGAAGCTATTAAGGGACGAATAATCCCTCAATATAAATATCTCTCACTTATTTAAA | – | 0.436 | – |
| ACAGACGAAGGAGCCGCAAAGAAGCTATTAAGGGAGGAATAATCCCTCAATATAAATATCTCTCACTTATTTAAA | 0.287 | 0.24 | – |
| ACAGACGAAGGAGCCGCAAAGAAGCTATTAAGGGATAAATAATCCCTCAATATAAATATCTCTCACTTATTTAAA | 0.479 | – | – |
| ACAGACGAAGGAGCCGCAAAGAAGCTATTAAGGGATCAATAATCCCTCAATATAAATATCTCTCACTTATTTAAA | – | 0.425 | – |
| ACAGACGAAGGAGCCGCAAAGAAGCTATTAAGGGATGAAAAATCCCTCAATATAAATATCTCTCACTTATTTAAA | 0.391 | 0.491 | – |
| ACAGACGAAGGAGCCGCAAAGAAGCTATTAAGGGATGAACAATCCCTCAATATAAATATCTCTCACTTATTTAAA | – | 0.568 | – |
| ACAGACGAAGGAGCCGCAAAGAAGCTATTAAGGGATGAATAATACCTCAATATAAATATCTCTCACTTATTTAAA | 0.0928 | – | – |
| ACAGACGAAGGAGCCGCAAAGAAGCTATTAAGGGATGAATAATCCCTAAATATAAATATCTCTCACTTATTTAAA | 0.346 | 0.407 | – |
| ACAGACGAAGGAGCCGCAAAGAAGCTATTAAGGGATGAATAATCCCTCAATATAAAAATCTCTCACTTATTTAAA | – | 0.713 | – |
| ACAGACGAAGGAGCCGCAAAGAAGCTATTAAGGGATGAATAATCCCTCAATATAAATAACTCTCACTTATTTAAA | – | 0.674 | – |
| ACAGACGAAGGAGCCGCAAAGAAGCTATTAAGGGATGAATAATCCCTCAATATAAATATCTCTCACTTATTTAAA | 0.571 | 0.615 | 0.588 |
| ACAGACGAAGGAGCCGCAAAGAAGCTATTAAGGGATGAATAATCCCTCAATTTAAATATCTCTCACTTATTTAAA | – | 0.0606 | – |
| ACAGACGAAGGAGCCGCAAAGAAGCTATTAAGGGATGAATAATCCCTCAGTATAAATATCTCTCACTTATTTAAA | 0.135 | – | – |
| ACAGACGAAGGAGCCGCAAAGAAGCTATTAAGGGATGAATAATCCCTGAATATAAATATCTCTCACTTATTTAAA | – | 0.343 | – |
| ACAGACGAAGGAGCCGCAAAGAAGCTATTAAGGGATGAATAATCCCTTAATATAAATATCTCTCACTTATTTAAA | – | 0.827 | – |

| Sequence | cleaved RNA product abundance [1] | cleaved RNA product abundance [2] | cleaved RNA product abundance [3] |
| --- | --- | --- | --- |
| ACAGACGAAGGAGCCGCAAAGAAGCTATTAAGGGATGAATAATTCCTCAATATAAATATCTCTCACTTATTTAAA | 0.432 | – | – |
| ACAGACGAAGGAGCCGCAAAGAAGCTATTAAGGGATGAATACTCCCTCAATATAAATATCTCTCACTTATTTAAA | – | 0.458 | – |
| ACAGACGAAGGAGCCGCAAAGAAGCTATTAAGGGATGAATATTCCCTCAATATAAATATCTCTCACTTATTTAAA | 0.469 | 0.56 | – |
| ACAGACGAAGGAGCCGCAAAGAAGCTATTAAGGGATGTATAATCCCTCAATATAAATATCTCTCACTTATTTAAA | – | 0.576 | – |
| ACAGACGAAGGAGCCGCAAAGAAGCTATTAAGGTATGAATAATCCCTCAATATAAATATCTCTCACTTATTTAAA | 0.0903 | 0.0903 | – |
| ACAGACGAAGGAGCCGCAAAGAAGCTATTAAGTGATGAATAATCCCTCAATATAAATATCTCTCACTTATTTAAA | – | 0.113 | – |
| ACAGACGAAGGAGCCGCAAAGAAGCTATTAATGGATGAATAATCCCTCAATATAAATATCTCTCACTTATTTAAA | – | 0.123 | – |
| ACAGACGAAGGAGCCGCAAAGAAGCTATTATGGGATGAATAATCCCTCAATATAAATATCTCTCACTTATTTAAA | – | 0.346 | – |
| ACAGACGAAGGAGCCGCAAAGAAGGAATTAAGGGATGAATAATCCCTCAATATAAATATCTCTCACTTATTTAAA | – | 0.353 | – |
| ACAGACGAAGGAGCCGCAAAGAAGGTATTAAAGGATGAATAATCCCTCAATATAAATATCTCTCACTTATTTAAA | – | 0.189 | – |
| ACAGACGAAGGAGCCGCAAAGAAGGTATTAAGAGATGAATAATCCCTCAATATAAATATCTCTCACTTATTTAAA | – | 0.171 | – |
| ACAGACGAAGGAGCCGCAAAGAAGGTATTAAGGAATGAATAATCCCTCAATATAAATATCTCTCACTTATTTAAA | 0.145 | 0.194 | – |
| ACAGACGAAGGAGCCGCAAAGAAGGTATTAAGGCATGAATAATCCCTCAATATAAATATCTCTCACTTATTTAAA | – | 0.101 | – |
| ACAGACGAAGGAGCCGCAAAGAAGGTATTAAGGGATAAATAATCCCTCAATATAAATATCTCTCACTTATTTAAA | – | 1.29 | – |
| ACAGACGAAGGAGCCGCAAAGAAGGTATTAAGGGATGAAAAATCCCTCAATATAAATATCTCTCACTTATTTAAA | 1.25 | – | – |
| ACAGACGAAGGAGCCGCAAAGAAGGTATTAAGGGATGAATAATCCATCAATATAAATATCTCTCACTTATTTAAA | – | 0.13 | – |
| ACAGACGAAGGAGCCGCAAAGAAGGTATTAAGGGATGAATAATCCCACAATATAAATATCTCTCACTTATTTAAA | 0.314 | – | – |
| ACAGACGAAGGAGCCGCAAAGAAGGTATTAAGGGATGAATAATCCCCCAATATAAATATCTCTCACTTATTTAAA | – | 0.378 | – |
| ACAGACGAAGGAGCCGCAAAGAAGGTATTAAGGGATGAATAATCCCTAAATATAAATATCTCTCACTTATTTAAA | 0.994 | 0.966 | – |
| ACAGACGAAGGAGCCGCAAAGAAGGTATTAAGGGATGAATAATCCCTCAATATAAATATCTCTCACTTATTTAAA | 1.51 | 1.18 | 0.983 |

| Sequence | cleaved RNA product abundance [1] | cleaved RNA product abundance [2] | cleaved RNA product abundance [3] |
| --- | --- | --- | --- |
| ACAGACGAAGGAGCCGCAAAGAAGGTATTAAGGGATGAATAATCCCTCAATATAAATTTCTCTCACTTATTTAAA | – | 0.849 | – |
| ACAGACGAAGGAGCCGCAAAGAAGGTATTAAGGGATGAATAATCCCTCAATATAACTATCTCTCACTTATTTAAA | – | 0.73 | – |
| ACAGACGAAGGAGCCGCAAAGAAGGTATTAAGGGATGAATAATCCCTGAATATAAATATCTCTCACTTATTTAAA | – | 1.45 | – |
| ACAGACGAAGGAGCCGCAAAGAAGGTATTAAGGGATGAATAATCCCTTAATATAAATATCTCTCACTTATTTAAA | – | 0.326 | – |
| ACAGACGAAGGAGCCGCAAAGAAGGTATTAAGGGATGAATAATCGCTCAATATAAATATCTCTCACTTATTTAAA | 0.176 | – | – |
| ACAGACGAAGGAGCCGCAAAGAAGGTATTAAGGTATGAATAATCCCTCAATATAAATATCTCTCACTTATTTAAA | – | 0.23 | – |
| ACAGACGAAGGAGCCGCAAAGAAGGTATTAAGTGATGAATAATCCCTCAATATAAATATCTCTCACTTATTTAAA | – | 0.104 | – |
| ACAGACGAAGGAGCCGCAAAGAAGGTCTTAAGGGATGAATAATCCCTCAATATAAATATCTCTCACTTATTTAAA | – | 0.115 | – |
| ACAGACGAAGGAGCCGCAAAGAAGTAAATAAGGAATGAATAATCCCTCAATATAAATATCTCTCACTTATTTAAA | – | 0.0667 | – |
| ACAGACGAAGGAGCCGCAAAGAAGTAAATAAGGGATGAATAATCCCTCAATATAAATATCTCTCACTTATTTAAA | 0.151 | 0.258 | – |
| ACAGACGAAGGAGCCGCAAAGAAGTAAGTAAGGGATGAATAATCCCTCAATATAAATATCTCTCACTTATTTAAA | 0.212 | 0.378 | – |
| ACAGACGAAGGAGCCGCAAAGAAGTAATAAAGGGATGAATAATCCCTCAATATAAATATCTCTCACTTATTTAAA | – | 0.205 | – |
| ACAGACGAAGGAGCCGCAAAGAAGTAATTAAAGGATGAATAATCCCTCAATATAAATATCTCTCACTTATTTAAA | 0.101 | 0.105 | – |
| ACAGACGAAGGAGCCGCAAAGAAGTAATTAAAGGATTAATAATCCCTCAATATAAATATCTCTCACTTATTTAAA | – | 0.183 | – |
| ACAGACGAAGGAGCCGCAAAGAAGTAATTAACGGATGAATAATCCCTCAATATAAATATCTCTCACTTATTTAAA | – | 0.133 | – |
| ACAGACGAAGGAGCCGCAAAGAAGTAATTAACGGATGAATAATCCCTGAATATAAATATCTCTCACTTATTTAAA | – | 0.16 | – |
| ACAGACGAAGGAGCCGCAAAGAAGTAATTAAGAGATAAATAATCCCTCAATATAAATATCTCTCACTTATTTAAA | – | 0.123 | – |
| ACAGACGAAGGAGCCGCAAAGAAGTAATTAAGAGATGAATAATCCCTCAATATAAATATCTCTCACTTATTTAAA | 0.0957 | 0.141 | – |
| ACAGACGAAGGAGCCGCAAAGAAGTAATTAAGCGATGAATAATCCCTCAATATAAATATCTCTCACTTATTTAAA | – | 0.157 | – |
